# Experiments:
# [1] = tested on: T lymphocytes and macrophages; assay: Cellular target in Lamina propria (CD3, F4/80, pSTAT3) after oral gavage; type: in vivo, mouse
# STAT3 phosphorylation = assay: In vivo pSTAT3 induction after intraluminal injection or oral gavage; set-up: species or system Balb/C mice; conditions: intraluminal injection, jejunum
# Method: In vivo studies in mice were performed where the biological activity of human IL-10 following transcytosis was assessed for its ability to stimulate the mouse IL-10 receptor and increase phosphorylation of STAT3 (pSTAT3) in cells within the Lamina propria.
# An extensive amount of rhIL-10 (SEQ ID NO: 5) was trafficked through enterocytes. Additionally, there were a population of lymphocyte-like cells at the basolateral surface of enterocytes and within the Lamina propria that were pSTAT3 positive.
# Entire intestines of mice were isolated and processed as a “swiss role” and localization of pSTAT3 was detected by immunofluorescence confocal microscopy (FIG. 110).
# [2] = tested on: cells of the Lamina propria; assay: Cell targeting in the Lamina propria after intraluminal injection (immunofluorescence); type: in vivo, Wistar rats
# Method: Rats were anesthetized using inhaled isoflurane and euthanized by inhaled CO2.
# Experiments were initiated by making an approximately 4 cm abdominal incision to access the mid-jejunum region of the small intestine. After performing the incision, 50 μl of a prepared solution of the IL-10 delivery construct (typically at about 1 mg/mL) was injected into the intestinal lumen of an area devoid of foodstuffs through a 27-gauge needle using a 1 mL syringe. The mesentery adjacent to the site of injection was labeled with a marker and the intestine was returned to the abdominal cavity, with the incision being closed with clamps.
# At specific times, the injected intestine was retrieved, surgically isolated and flushed with a 4° C. isotonic PBS. Washed, excised samples were fixed (4% paraformaldehyde in PBS) overnight at 4° C. before dehydration through graded series of ethanol/water solutions and overnight incubation in chloroform.
# Dehydrated tissues were immersed in wax, sectioned, and mounted on poylysine slides and processed for antigen retrieval using sodium citrate. Afterward, sections were permeabilised with 0.2% Triton-X100 in PBS prior to thrice washing in PBS and blocking with 2% BSA+2% serum of the animal the secondary antibodies have been raised. Primary antibodies were diluted in 1% BSA, 0.1% Triton-X100 in PBS and incubated overnight at 4° C. in humidified air. Fluorescent secondary antibodies were diluted in 1% BSA, 0.1% Triton-X100 in PBS and incubated for 2 h at RT prior to processing for confocal microscopy. On occasion, an approximately 1 cm section of intestine at the injection site was collected for biochemical studies.
# Proteins for specific cell types were examined by immuno-fluorescence using confocal microscopy. The IL-10 delivery construct components (the carrier, also referred to herein as “cholix,” and IL-10) were followed separately with either a polyclonal antibody (pAb) or monoclonal antibody (mAb) to IL-10 or a pAb or mAb to the carrier domain to allow co-localization with pAb or mAbs available (TABLE 46).
# [3] = tested on: IFNγ, IL-1β, IL-2, IL-6, IL-8, TNFα; assay: Single oral capsule dose in NHP: plasma proinflammatory cytokines; type: in vivo, Macaca fascicularis
# Method: The panel of cytokines (IFNγ, IL-1β, IL-2, IL-6, and IL-8) was evaluated using a multiplex kit available from MSD. The assays in this panel were sandwich immunoassays. The MSD plate came precoated with capture antibodies on independent and pre-defined spots, and samples were quantitated against an 8-point standard curve prepared using a mixture of the cytokines (Proinflammatory Panel 1 (human) Calibrator Blend) from MSD. The standards included 0 pg/mL and these concentration ranges: IFNγ (0.37-1500 pg/mL), IL-1β (0.14-589 pg/mL), IL-2 (0.36-1490 pg/mL), IL-6 (0.18-721 pg/mL) and IL-8 (0.14-553 pg/mL).
# The MSD plate (pre-coated with capture antibodies) was washed 3 times with PBST before use. Standards were prepared in Diluent 2 (MSD Cat No R51BB) and test samples diluted 2 fold in Diluent 2. Standards and diluted samples were added to the assay plate, and the plate incubated for 2 hours at room temperature with shaking. The plate was washed 3 times with PBST, and a mixture of 1×SULFO TAG detection antibodies added to the plate. The plate was incubated for 2 hours at room temperature with shaking. Following a wash step, 2×MSD Read buffer was added to the wells of the plate, and the plate read using the MSD Sector Imager 600 plate reader. The lower limit of detection of each analyte was defined as 2.5 standard deviation above background.
# The purpose of the TNFα immunoassay was to quantify NHP TNFα concentration in plasma. The antibody pair in this immunoassay reacted with both human and NHP TNFα. Samples were quantitated using an 8-point standard curve prepared from a human TNFα calibrator that ranges in concentration from 5.6-4052 pg/mL and includes 0 pg/mL.
# The biotinylated anti-NHP TNFα capture antibody was added to a MSD Small Spot Streptavidin plate and incubated for an hour at RT with shaking. Controls were prepared in pooled plasma, standards in Diluent 43 (MSD Cat No R50AG), and test samples were diluted 2 fold in Diluent 43. […] Following a wash step, 2×MSD Read buffer was added to the wells of the plate, and the plate read using the MSD Sector Imager 600 plate reader. […]
# IL-1Ra = type: in vivo, mice; conditions: 9 mg/kg
molecule,measurement,setting,value
"IL-10 delivery construct: recombinant homodimeric fusion protein: N-terminal methionine, cholix386 domain, polyGlySer spacer, recombinant human IL-10 (protein, homodimer) MVEEALNIFDECRSPCSLTPEPGKPIQSKLSIPSDVVLDEGVLYYSMTINDEQNDIKDEDKGESIITIGEFATVRATRHYVNQDAPFGVIHLDITTENGTKTYSYNRKEGEFAINWLVPIGEDSPASIKISVDELDQQRNIIEVPKLYSIDLDNQTLEQWKTQGNVSFSVTRPEHNIAISWPSVSYKAAQKEGSRHKRWAHWHTGLALCWLVPMDAIYNYITQQNCTLGDNWFGGSYETVAGTPKVITVKQGIEQKPVEQRIHFSKGNAMSALAAHRVCGVPLETLARSRKPRDLTDDLSCAYQAQNIVSLFVATRILFSHLDSVFTLNLDEQEPEVAERLSDLRRINENNPGMVTQVLTVARQIYNDYVTHHPGLTPEQTSAGAQAGGGGSGGGGSGGGGSPGQGTQSENSCTHFPGNLPNMLRDLRDAFSRVKTFFQMKDQLDNLLLKESLLEDFKGYLGCQALSEMIQFYLEEVMPQAENQDPDIKAHVNSLGENLKTLRLRLRRCHRFLPCENKSKAVEQVKNAFNKLQEKGIYKAMSEFDIFINYIEAYMTMKIRN",CD3+ cells co-localizing with pSTAT3,[1]; 40 min after oral gavage,moderate proportion
same,F4/80 (macrophage) co-localization with pSTAT3,[1]; after oral gavage,extensive co-localization with pSTAT3
same,phosphorylation of STAT3 in cells within the Lamina propria,STAT3 phosphorylation,increased phosphorylation of STAT3
same,time by which extensive amount reached the Lamina propria,"[2]; 1-minute pulse, intraluminal injection",≤ 15 min
same,co-localization with LAMP1-positive lysosomes in enterocytes,[2]; 15-minute time course,little or no co-localization
same,co-localization with CD3 antigen (T lymphocytes),[2]; Lamina propria,striking co-localizations
same,co-localization with CD19-positive cells (B-lymphocytes),[2]; Lamina propria,failed to co-localize
same,co-localization with CD34-positive cells (endothelia),[2]; Lamina propria,failed to co-localize
same,co-localization with CD11c antigen (dendritic cells),"[2]; Lamina propria, rat jejunum",did not co-localize with CD11c antigen to any striking extent
same,"plasma IFNγ, IL-1β, IL-2, IL-8, IL-6",[3]; 1-82 mg oral capsules,not associated with any consistent trends
same,plasma TNFα,[3]; all samples below limit of detection,no induction
same,plasma IL-1Ra and IFN-γ after oral enteric-coated capsules,[3]; compared with intravenous administration,increased IL-1Ra without significant induction of IFN-γ
same,IL-1Ra mRNA in near-distal colonic tissue,IL-1Ra,trend towards augmented mRNA expression of IL-1Ra
same,IL-1Ra/IL-1β ratio in colonic tissue,IL-1Ra,increase in the IL-1Ra/IL-1β ratio
